Results taken from publication PMC12069617 (Nature Communications, 2024).

Tests used:
[1] = biological target: histone acetyltransferase p300, full-length, Strep II-tagged (human, UniProt Q09472 1-2414); experiment: cross-linking
SEC-MALS = biological target: the molecule itself; experiment: SEC-MALS

Chain of histone acetyltransferase p300, full-length, Strep II-tagged (Q09472 whole entry): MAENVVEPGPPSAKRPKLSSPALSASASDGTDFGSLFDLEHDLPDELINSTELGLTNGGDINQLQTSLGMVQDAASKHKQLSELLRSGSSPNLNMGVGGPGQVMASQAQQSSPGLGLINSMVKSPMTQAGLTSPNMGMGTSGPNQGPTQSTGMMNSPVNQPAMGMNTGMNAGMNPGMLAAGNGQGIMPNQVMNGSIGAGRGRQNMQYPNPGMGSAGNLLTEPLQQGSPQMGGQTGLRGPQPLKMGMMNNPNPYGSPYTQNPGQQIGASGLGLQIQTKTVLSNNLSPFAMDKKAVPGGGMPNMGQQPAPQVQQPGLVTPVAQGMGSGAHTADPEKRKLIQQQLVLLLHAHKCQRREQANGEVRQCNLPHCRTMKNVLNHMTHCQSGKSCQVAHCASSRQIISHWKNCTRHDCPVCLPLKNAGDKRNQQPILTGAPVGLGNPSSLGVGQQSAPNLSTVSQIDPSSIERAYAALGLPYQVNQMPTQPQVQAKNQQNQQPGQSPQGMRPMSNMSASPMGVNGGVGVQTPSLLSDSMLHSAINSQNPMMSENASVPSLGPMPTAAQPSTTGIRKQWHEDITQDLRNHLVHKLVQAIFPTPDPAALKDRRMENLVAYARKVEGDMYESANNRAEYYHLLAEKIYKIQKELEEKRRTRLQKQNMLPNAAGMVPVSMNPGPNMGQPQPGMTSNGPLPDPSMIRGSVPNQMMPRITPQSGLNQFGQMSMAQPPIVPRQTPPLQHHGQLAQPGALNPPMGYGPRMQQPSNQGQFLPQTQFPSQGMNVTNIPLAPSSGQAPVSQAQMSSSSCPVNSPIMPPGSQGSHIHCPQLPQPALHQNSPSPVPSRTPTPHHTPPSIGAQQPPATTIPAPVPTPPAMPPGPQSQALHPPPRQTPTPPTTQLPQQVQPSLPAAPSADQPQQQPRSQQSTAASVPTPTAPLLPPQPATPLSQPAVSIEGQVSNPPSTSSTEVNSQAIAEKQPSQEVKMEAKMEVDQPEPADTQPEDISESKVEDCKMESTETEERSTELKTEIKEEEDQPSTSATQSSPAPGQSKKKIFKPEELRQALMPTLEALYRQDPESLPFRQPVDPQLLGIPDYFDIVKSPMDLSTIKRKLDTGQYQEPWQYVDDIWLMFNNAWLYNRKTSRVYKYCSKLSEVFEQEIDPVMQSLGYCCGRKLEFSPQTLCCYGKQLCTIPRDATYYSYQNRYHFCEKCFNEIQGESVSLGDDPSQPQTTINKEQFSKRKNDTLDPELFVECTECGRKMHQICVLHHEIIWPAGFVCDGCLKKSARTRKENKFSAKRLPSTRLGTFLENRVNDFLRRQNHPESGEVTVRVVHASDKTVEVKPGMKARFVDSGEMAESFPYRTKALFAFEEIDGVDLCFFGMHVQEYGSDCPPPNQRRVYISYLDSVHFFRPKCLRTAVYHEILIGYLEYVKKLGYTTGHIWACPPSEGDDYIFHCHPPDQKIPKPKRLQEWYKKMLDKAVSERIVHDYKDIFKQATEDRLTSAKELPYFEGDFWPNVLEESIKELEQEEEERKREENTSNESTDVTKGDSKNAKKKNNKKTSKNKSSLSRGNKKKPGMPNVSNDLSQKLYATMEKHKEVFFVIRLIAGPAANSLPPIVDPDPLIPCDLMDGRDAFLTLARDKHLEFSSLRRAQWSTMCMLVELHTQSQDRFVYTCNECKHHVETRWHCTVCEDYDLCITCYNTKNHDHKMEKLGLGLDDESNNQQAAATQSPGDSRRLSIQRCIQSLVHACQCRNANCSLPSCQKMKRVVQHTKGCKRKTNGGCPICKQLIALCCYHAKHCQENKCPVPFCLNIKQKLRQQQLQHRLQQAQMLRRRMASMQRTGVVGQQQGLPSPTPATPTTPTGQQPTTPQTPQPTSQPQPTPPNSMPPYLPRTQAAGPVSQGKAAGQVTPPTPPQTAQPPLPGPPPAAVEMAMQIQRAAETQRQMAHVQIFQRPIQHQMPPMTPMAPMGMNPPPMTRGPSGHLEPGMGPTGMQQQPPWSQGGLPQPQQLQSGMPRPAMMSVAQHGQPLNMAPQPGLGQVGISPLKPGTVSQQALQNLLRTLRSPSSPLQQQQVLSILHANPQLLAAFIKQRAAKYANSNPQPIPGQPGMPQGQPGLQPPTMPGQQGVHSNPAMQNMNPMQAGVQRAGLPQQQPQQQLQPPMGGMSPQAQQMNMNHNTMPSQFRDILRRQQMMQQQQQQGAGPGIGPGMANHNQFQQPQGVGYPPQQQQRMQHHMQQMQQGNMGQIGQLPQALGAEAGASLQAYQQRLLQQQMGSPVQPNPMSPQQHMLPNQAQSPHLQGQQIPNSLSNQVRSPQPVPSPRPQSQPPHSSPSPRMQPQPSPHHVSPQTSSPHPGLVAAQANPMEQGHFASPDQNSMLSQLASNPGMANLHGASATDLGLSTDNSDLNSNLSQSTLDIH

Row | Binder | binding result [1] | stoichiometry N (SEC-MALS)
1 | progesterone receptor isoform B (PR-B), full-length, Strep II-tagged (receptor, phosphorylated on multiple serine residues (sites not given)) MTELKAKGPRAPHVAGGPPSPEVGSPLLCRPAAGPFPGSQTSDTLPEVSAIPISLDGLLFPRPCQGQDPSDEKTQDQQSLSDVEGAYSRAEATRGAGGSSSSPPEKDSGLLDSVLDTLLAPSGPGQSQPSPPACEVTSSWCLFGPELPEDPPAAPATQRVLSPLMSRSGCKVGDSSGTAAAHKVLPRGLSPARQLLLPASESPHWSGAPVKPSPQAAAVEVEEEDGSESEESAGPLLKGKPRALGGAAAGGGAAAVPPGAAAGGVALVPKEDSRFSAPRVALVEQDAPMAPGRSPLATTVMDFIHVPILPLNHALLAARTRQLLEDESYDGGAGAASAFAPPRSSPCASSTPVAVGDFPDCAYPPDAEPKDDAYPLYSDFQPPALKIKEEEEGAEASARSPRSYLVAGANPAAFPDFPLGPPPPLPPRATPSRPGEAAVTAAPASASVSSASSSGSTLECILYKAEGAPPQQGPFAPPPCKAPGASGCLLPRDGLPSTSASAAAAGAAPALYPALGLNGLPQLGYQAAVLKEGLPQVYPPYLNYLRPDSEASQSPQYSFESLPQKICLICGDEASGCHYGVLTCGSCKVFFKRAMEGQHNYLCAGRNDCIVDKIRRKNCPACRLRKCCQAGMVLGGRKFKKFNKVRVVRALDAVALPQPVGVPNESQALSQRFTFSPGQDIQLIPPLINLLMSIEPDVIYAGHDNTKPDTSSSLLTSLNQLGERQLLSVVKWSKSLPGFRNLHIDDQITLIQYSWMSLMVFGLGWRSYKHVSGQMLYFAPDLILNEQRMKESSFYSLCLTMWQIPQEFVKLQVSQEEFLCMKVLLLLNTIPLEGLRSQTQFEEMRSSYIRELIKAIGLRQKGVVSSSQRFYQLTKLLDNLHDLVKQLHLYCLNTFIQSRALSVEFPEMMSEVIAAQLPKILAGMVKPLLFHKK | binds | 2
2 | progesterone receptor isoform A (PR-A), full-length, Strep II-tagged (receptor, phosphorylated on multiple serine residues (sites not given)) MSRSGCKVGDSSGTAAAHKVLPRGLSPARQLLLPASESPHWSGAPVKPSPQAAAVEVEEEDGSESEESAGPLLKGKPRALGGAAAGGGAAAVPPGAAAGGVALVPKEDSRFSAPRVALVEQDAPMAPGRSPLATTVMDFIHVPILPLNHALLAARTRQLLEDESYDGGAGAASAFAPPRSSPCASSTPVAVGDFPDCAYPPDAEPKDDAYPLYSDFQPPALKIKEEEEGAEASARSPRSYLVAGANPAAFPDFPLGPPPPLPPRATPSRPGEAAVTAAPASASVSSASSSGSTLECILYKAEGAPPQQGPFAPPPCKAPGASGCLLPRDGLPSTSASAAAAGAAPALYPALGLNGLPQLGYQAAVLKEGLPQVYPPYLNYLRPDSEASQSPQYSFESLPQKICLICGDEASGCHYGVLTCGSCKVFFKRAMEGQHNYLCAGRNDCIVDKIRRKNCPACRLRKCCQAGMVLGGRKFKKFNKVRVVRALDAVALPQPVGVPNESQALSQRFTFSPGQDIQLIPPLINLLMSIEPDVIYAGHDNTKPDTSSSLLTSLNQLGERQLLSVVKWSKSLPGFRNLHIDDQITLIQYSWMSLMVFGLGWRSYKHVSGQMLYFAPDLILNEQRMKESSFYSLCLTMWQIPQEFVKLQVSQEEFLCMKVLLLLNTIPLEGLRSQTQFEEMRSSYIRELIKAIGLRQKGVVSSSQRFYQLTKLLDNLHDLVKQLHLYCLNTFIQSRALSVEFPEMMSEVIAAQLPKILAGMVKPLLFHKK | binds | 
